# B1: Rattus norvegicus LIS1 (PAFAH1b1), StrepII-SNAPf tagged, wild type (natural protein)
# chain: MVLSQRQRDELNRAIADYLRSNGYEEAYSVFKKEAELDMNEELDKKYAGLLEKKWTSVIRLQKKVMELESKLNEAKEEFTSGGPLGQKRDPKEWIPRPPEKYALSGHRSPVTRVIFHPVFSVMVSASEDATIKVWDYETGDFERTLKGHTDSVQDISFDHSGKLLASCSADMTIKLWDFQGFECIRTMHGHDHNVSSVAIMPNGDHIVSASRDKTIKMWEVQTGYCVKTFTGHREWVRMVRPNQDGTLIASCSNDQTVRVWVVATKECKAELREHEHVVECISWAPESSYSSISEATGSETKKSGKPGPFLLSGSRDKTIKMWDVSTGMCLMTLVGHDNWVRGVLFHSGGKFILSCADDKTLRVWDYKNKRCMKTLNAHEHFVTSLDFHKTAPYVVTGSVDQTVKVWECR
# modifications: SNAP dye (SNAP-Alexa 647 or SNAP-Surface 488) covalently on the SNAP tag
# Molecular target: dynein-dynactin-BicD2N (DDB) complex (mouse | rat (endogenous in rat brain cytosol)) (UniProt Q921C5)
# Experiment: multicolor single-molecule TIRF microscopy
# UniProt Q921C5, sequence (Q921C5 whole entry, looked up, one chain of several): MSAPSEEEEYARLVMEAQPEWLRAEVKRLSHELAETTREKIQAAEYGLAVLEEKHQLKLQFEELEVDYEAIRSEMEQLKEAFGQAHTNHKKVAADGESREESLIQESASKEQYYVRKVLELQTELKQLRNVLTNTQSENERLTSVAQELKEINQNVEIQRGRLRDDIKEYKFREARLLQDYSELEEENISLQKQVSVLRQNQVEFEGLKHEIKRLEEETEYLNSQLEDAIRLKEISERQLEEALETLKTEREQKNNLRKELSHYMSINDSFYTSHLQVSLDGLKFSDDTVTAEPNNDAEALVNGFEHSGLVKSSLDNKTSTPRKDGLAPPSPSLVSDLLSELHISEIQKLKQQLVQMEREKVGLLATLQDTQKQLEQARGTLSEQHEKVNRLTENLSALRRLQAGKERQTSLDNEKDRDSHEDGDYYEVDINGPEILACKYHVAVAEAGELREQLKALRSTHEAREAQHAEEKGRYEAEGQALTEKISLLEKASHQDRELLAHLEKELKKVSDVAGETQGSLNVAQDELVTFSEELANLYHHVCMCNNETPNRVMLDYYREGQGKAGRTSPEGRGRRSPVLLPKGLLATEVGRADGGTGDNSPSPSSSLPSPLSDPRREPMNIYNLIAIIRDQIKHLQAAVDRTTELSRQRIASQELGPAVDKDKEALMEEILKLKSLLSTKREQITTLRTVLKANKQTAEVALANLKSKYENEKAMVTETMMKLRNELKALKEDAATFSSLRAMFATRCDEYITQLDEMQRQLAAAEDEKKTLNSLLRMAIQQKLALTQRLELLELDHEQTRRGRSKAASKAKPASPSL
binder,measurement,value
B1,percent of DDB-L complexes with both 647- and 488-SNAP LIS1,8%
same,percent of DDB-L complexes with two LIS1 dimers,< 24%
same,percent of diffusive DDB complexes with a bound LIS1,34%
same,percent of processive DDB complexes with a bound LIS1,18%
same,stoichiometry N (LIS1 dimer per DDB),1
same,stoichiometry N (LIS1 dimers per DDB),2

# Source: publication doi:10.1101/124255
